Source: US20140072613A1, “Compositions and Methods for Treating Cutaneous Scarring” (priority 2012, published 2014)

How the values were obtained:
Experiment in all cases: biochemical
Format in all cases: biochemical
266 human kinases [1] = molecular target: 266 human kinases (Homo sapiens, UniProt P53778); conditions: SAPK3(h); 100 μM
Excerpt: (§1) Specifically, in these assays, a positively charged substrate is phosphorylated with a radiolabeled phosphate group from an ATP if the kinase is not inhibited by an inhibitor peptide. The positively charged substrate then is attracted to a negatively charged filter membrane, quantified with a scintillation counter, and compared to a 100% activity control.

266 human kinases [2] = molecular target: 266 human kinases (Homo sapiens, UniProt Q04759); conditions: PKCθ(h); 100 μM
Sequence of 266 human kinases (Homo sapiens, UniProt Q04759) (Q04759 whole entry): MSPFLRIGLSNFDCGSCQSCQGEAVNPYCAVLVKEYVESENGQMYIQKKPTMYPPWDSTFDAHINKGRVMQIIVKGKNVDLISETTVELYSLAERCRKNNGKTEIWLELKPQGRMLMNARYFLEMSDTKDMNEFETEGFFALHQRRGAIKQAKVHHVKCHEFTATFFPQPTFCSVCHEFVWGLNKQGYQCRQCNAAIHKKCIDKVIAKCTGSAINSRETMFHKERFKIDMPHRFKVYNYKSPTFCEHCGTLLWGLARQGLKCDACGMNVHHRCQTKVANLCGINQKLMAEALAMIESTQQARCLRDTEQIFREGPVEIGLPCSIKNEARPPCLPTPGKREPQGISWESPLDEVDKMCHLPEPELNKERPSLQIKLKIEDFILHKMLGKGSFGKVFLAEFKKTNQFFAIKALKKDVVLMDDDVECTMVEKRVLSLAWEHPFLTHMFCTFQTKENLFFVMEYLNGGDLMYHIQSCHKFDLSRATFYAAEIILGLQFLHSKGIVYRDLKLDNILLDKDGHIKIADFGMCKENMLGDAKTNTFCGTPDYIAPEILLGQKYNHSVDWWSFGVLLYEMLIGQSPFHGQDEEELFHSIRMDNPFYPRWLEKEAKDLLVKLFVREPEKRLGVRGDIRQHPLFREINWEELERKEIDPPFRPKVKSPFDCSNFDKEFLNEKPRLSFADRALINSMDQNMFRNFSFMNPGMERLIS
Excerpt: as §1

266 human kinases [3] = molecular target: 266 human kinases (Homo sapiens, UniProt Q96RG2); conditions: PASK(h); 100 μM
Sequence of 266 human kinases (Homo sapiens, UniProt Q96RG2) (Q96RG2 whole entry): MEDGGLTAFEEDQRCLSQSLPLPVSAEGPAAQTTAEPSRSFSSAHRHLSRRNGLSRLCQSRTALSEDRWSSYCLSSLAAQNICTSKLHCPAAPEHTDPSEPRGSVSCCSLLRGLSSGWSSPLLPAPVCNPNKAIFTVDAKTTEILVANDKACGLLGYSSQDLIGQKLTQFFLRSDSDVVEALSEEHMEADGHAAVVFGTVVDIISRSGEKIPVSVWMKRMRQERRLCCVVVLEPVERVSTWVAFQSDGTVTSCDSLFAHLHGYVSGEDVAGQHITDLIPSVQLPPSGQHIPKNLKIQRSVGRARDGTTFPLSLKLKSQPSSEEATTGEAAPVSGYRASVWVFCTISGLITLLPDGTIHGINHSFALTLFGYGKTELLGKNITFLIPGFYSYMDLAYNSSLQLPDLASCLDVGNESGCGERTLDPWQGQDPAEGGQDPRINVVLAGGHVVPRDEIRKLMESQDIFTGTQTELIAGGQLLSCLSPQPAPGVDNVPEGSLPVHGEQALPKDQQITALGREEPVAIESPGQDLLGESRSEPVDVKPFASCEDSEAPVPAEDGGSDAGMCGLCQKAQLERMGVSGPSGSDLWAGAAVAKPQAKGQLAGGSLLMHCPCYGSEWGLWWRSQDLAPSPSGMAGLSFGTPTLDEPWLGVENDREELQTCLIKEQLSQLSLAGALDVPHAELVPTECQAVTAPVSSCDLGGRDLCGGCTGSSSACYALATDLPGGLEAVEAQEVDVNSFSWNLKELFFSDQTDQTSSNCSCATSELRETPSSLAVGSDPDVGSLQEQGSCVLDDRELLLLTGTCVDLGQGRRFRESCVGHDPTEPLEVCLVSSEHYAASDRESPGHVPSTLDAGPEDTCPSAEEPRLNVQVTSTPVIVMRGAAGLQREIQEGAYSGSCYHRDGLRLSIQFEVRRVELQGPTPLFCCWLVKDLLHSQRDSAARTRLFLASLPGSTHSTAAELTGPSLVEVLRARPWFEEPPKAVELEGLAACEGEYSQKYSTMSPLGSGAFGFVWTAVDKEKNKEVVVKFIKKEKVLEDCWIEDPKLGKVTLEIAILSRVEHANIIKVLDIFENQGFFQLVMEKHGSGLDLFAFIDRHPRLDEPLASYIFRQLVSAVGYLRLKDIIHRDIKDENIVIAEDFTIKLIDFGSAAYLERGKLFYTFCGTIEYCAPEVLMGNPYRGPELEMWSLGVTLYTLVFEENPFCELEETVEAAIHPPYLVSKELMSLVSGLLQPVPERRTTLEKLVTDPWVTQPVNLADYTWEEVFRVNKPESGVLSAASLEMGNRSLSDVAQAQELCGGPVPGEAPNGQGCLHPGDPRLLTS
Excerpt: as §1

266 human kinases [4] = molecular target: 266 human kinases (Homo sapiens, UniProt Q13557); conditions: CaMKIIδ(h); 100 μM
Excerpt: as §1

266 human kinases [5] = molecular target: T1, 266 human kinases (Homo sapiens, UniProt Q08881); conditions: Itk(h); 100 μM
T1 sequence (Q08881 1-620): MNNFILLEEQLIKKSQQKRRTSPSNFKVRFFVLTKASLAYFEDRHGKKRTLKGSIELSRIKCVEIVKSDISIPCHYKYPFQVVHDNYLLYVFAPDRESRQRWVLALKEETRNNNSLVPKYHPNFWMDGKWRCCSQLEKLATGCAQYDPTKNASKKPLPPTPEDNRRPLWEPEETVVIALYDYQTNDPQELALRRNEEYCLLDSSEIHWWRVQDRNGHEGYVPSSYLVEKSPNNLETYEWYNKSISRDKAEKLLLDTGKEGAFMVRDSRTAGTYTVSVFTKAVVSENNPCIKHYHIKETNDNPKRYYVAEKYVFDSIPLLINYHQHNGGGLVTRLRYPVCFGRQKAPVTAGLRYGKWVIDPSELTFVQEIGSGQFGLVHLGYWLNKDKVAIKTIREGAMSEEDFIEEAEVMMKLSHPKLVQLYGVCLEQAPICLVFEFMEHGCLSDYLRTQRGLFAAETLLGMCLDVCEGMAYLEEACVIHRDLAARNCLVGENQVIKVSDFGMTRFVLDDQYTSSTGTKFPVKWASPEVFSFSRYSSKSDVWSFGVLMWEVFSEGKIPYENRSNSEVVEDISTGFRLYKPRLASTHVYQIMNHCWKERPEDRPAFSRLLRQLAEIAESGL
Excerpt: as §1

266 human kinases [6] = molecular target: T2, 266 human kinases (Homo sapiens, UniProt P51956); conditions: NEK3(h); 100 μM
T2 sequence (P51956 1-506): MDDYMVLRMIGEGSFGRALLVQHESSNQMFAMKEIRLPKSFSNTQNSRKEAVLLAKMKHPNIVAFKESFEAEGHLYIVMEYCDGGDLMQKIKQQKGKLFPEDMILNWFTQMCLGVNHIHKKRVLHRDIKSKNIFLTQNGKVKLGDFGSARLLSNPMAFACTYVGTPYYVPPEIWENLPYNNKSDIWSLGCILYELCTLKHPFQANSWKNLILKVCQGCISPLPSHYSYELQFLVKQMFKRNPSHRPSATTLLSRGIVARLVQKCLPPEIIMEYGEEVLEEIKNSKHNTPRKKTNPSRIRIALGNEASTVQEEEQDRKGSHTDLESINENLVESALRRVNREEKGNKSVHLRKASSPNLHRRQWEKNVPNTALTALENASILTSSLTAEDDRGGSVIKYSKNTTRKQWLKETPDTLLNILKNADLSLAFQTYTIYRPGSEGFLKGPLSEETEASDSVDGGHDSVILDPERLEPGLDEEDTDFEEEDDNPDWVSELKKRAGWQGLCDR
Excerpt: as §1

266 human kinases [7] = molecular target: 266 human kinases (Homo sapiens, UniProt P06239); conditions: 100 μM
Sequence of 266 human kinases (Homo sapiens, UniProt P06239) (P06239 whole entry): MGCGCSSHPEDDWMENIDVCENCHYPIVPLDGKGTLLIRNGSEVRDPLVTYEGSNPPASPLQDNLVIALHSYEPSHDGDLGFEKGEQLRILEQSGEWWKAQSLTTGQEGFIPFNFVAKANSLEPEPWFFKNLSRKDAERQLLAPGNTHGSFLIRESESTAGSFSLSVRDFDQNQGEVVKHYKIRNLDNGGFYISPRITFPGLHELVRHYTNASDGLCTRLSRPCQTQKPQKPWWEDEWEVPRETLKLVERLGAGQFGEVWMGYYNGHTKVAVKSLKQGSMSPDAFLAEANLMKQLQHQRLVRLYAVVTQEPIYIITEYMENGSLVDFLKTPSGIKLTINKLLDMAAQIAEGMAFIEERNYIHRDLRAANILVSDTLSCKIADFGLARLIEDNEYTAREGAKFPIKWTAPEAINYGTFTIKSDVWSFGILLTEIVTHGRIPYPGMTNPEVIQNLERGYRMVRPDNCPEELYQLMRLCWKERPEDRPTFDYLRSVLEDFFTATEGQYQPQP
Excerpt: as §1

266 human kinases [8] = molecular target: 266 human kinases (Homo sapiens, UniProt P42685); conditions: PTK5(h); 100 μM
Excerpt: as §1

266 human kinases [9] = molecular target: 266 human kinases (Homo sapiens, UniProt Q02763); conditions: Tie2(h); 100 μM
Sequence of 266 human kinases (Homo sapiens, UniProt Q02763) (Q02763 23-1124): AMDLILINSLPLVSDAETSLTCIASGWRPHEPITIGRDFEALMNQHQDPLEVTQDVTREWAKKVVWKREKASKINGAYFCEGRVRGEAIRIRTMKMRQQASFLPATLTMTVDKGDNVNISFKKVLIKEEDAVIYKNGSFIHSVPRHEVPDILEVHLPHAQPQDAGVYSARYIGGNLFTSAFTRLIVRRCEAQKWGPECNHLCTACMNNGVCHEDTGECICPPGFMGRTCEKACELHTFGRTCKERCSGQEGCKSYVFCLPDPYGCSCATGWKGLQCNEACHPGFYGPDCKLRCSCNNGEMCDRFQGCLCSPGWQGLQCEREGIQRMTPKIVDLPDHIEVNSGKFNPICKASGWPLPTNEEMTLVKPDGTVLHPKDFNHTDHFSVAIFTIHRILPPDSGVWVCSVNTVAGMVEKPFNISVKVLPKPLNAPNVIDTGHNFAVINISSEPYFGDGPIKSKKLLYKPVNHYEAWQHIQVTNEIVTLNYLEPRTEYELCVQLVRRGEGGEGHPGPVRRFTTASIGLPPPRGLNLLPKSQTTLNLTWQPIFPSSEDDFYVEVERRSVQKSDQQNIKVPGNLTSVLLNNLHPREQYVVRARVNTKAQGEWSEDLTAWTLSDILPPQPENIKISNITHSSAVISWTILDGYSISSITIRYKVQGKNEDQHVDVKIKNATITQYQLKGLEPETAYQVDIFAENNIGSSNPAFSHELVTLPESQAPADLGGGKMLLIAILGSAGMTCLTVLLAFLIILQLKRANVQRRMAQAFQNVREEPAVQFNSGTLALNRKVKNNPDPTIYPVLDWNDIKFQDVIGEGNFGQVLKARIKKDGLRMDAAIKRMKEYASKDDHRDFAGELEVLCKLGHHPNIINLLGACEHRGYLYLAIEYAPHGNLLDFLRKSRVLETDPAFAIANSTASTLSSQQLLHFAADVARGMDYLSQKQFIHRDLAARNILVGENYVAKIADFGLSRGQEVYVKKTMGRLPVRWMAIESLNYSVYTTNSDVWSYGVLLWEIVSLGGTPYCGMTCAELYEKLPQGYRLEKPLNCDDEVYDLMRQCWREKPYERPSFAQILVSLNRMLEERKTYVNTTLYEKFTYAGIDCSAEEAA
Excerpt: as §1

266 human kinases [10] = molecular target: 266 human kinases (Homo sapiens, UniProt O60674); conditions: JAK2(h); 100 μM
Excerpt: as §1

266 human kinases [11] = molecular target: 266 human kinases (Homo sapiens, UniProt O75676); conditions: MSK2(h); 100 μM
Sequence of 266 human kinases (Homo sapiens, UniProt O75676) (O75676 whole entry): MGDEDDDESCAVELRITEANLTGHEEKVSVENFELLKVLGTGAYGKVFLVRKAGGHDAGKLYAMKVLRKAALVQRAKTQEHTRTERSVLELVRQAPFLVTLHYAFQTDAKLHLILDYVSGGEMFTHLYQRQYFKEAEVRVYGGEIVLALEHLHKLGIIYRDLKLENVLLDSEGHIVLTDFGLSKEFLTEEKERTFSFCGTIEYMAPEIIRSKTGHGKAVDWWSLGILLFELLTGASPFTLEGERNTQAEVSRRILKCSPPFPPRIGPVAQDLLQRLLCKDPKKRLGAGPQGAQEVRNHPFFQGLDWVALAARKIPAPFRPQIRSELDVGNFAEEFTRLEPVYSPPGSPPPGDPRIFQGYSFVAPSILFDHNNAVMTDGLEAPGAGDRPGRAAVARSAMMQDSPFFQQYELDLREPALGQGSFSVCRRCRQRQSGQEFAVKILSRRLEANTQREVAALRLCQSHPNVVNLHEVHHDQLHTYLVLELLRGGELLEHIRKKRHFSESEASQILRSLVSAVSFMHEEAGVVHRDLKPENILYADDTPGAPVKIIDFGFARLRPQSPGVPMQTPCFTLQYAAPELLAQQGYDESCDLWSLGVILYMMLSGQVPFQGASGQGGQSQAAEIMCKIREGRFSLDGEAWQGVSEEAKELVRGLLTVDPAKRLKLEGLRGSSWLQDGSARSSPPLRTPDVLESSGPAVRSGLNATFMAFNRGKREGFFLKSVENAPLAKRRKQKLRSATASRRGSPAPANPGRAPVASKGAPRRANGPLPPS
Excerpt: as §1

266 human kinases [12] = molecular target: T3, 266 human kinases (Homo sapiens, UniProt Q8NG66); conditions: NEK11(h); 100 μM
T3 sequence (Q8NG66 1-645): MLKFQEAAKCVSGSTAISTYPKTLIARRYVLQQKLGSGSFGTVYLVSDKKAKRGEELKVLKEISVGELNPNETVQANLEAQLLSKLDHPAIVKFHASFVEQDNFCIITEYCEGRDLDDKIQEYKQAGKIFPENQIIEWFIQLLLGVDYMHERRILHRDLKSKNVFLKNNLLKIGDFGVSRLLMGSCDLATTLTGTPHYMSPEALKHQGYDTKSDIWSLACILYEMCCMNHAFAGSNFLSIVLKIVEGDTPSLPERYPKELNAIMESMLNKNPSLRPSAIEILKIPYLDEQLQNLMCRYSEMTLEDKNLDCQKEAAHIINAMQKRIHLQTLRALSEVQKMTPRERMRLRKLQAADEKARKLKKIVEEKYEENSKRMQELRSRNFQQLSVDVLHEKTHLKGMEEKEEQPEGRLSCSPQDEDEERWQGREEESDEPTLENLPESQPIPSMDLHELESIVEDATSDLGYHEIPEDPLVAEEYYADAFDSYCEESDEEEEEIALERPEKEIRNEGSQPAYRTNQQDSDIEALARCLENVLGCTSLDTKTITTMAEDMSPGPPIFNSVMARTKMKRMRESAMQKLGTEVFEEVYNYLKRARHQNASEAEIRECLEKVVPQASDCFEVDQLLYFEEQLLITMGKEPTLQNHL
Excerpt: as §1

266 human kinases [13] = molecular target: 266 human kinases (Homo sapiens, UniProt Q9P1W9); conditions: Pim-2(h); 100 μM
Sequence of 266 human kinases (Homo sapiens, UniProt Q9P1W9) (Q9P1W9 whole entry): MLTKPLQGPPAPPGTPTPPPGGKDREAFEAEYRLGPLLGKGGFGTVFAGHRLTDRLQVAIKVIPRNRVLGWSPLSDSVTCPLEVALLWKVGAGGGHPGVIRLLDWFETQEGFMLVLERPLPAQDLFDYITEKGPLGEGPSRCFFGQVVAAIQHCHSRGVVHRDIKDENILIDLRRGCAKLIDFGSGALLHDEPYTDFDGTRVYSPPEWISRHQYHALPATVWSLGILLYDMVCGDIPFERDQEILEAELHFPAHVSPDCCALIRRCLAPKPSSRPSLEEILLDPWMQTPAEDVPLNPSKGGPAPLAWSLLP
Excerpt: as §1

266 human kinases [14] = molecular target: 266 human kinases (Homo sapiens, UniProt Q9HC98); conditions: NEK6(h); 100 μM
Sequence of 266 human kinases (Homo sapiens, UniProt Q9HC98) (Q9HC98 whole entry): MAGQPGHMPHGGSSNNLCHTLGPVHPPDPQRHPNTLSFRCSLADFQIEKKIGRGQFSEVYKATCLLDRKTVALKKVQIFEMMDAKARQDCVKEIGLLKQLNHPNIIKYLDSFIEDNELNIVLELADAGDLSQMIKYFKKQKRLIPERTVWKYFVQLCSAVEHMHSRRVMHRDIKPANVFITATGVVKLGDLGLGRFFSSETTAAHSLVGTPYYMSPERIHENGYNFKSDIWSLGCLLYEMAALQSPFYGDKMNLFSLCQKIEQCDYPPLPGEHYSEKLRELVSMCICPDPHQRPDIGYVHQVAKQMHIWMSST
Excerpt: as §1

Row | Sequence | % activity (266 human kinases [1]) | % activity (266 human kinases [2]) | % activity (266 human kinases [3]) | % activity (266 human kinases [4]) | % activity (266 human kinases [5]) | % activity (266 human kinases [6]) | % activity (266 human kinases [7]; Lck(h) activated) | % activity (266 human kinases [7]; Lck(h)) | % activity (266 human kinases [8]) | % activity (266 human kinases [9]) | % activity (266 human kinases [10]) | % activity (266 human kinases [11]) | % activity (266 human kinases [12]) | % activity (266 human kinases [13]) | % activity (266 human kinases [14])
1 | HRRIKAWLKKIKALARQLGVAA (mammal) [MMI-0500] | 24% | 62% | 9% | 1% | 7% | 20% | 76% | 359% | 96% | 22% | 49% | 14% | 2% | 46% | 49%
2 | YARAAARQARAKALNRQLGVA (mammal) [MMI-0200] | 97% | 101% | 60% | 2% | 98% | 100% | 90% |  | 108% | 53% | 131% | 88% | 95% | 74% | 98%
